Assay: yeast display, Sf9 membrane polyspecificity reagent, FACS + sequencing; frameworks hold sequencing errors
Method in brief: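 In a synthetic yeast display library (Saccharomyces cerevisiae BJ5465), nanobody expression was induced with galactose for 36–48 hours. FACS gates were set low and high (top ~1%) using anti-HA fluorescence for expression and streptavidin fluorescence for binding of the Sf9 membrane reagent. Each polyreactivity label is drawn from the gate of origin.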

Sequence | polyreactivity (PSR sort gate)
QVQLVESGGGLVQAGGSHRLSCAASGITFYWYAMGWYRQAPGKERELVAAITRSVGSTYYADSVKGRFTISRDNAKNTVYLQMNSLKPEDTAVYYCAADFYYYGFDYWGQGTQVTVSS | low polyreactivity
QVQLVESGGGLVQAGGSHRLSCAASGRIFEDYAMGWYRQAPGKERELVARISSGDSTNYADSVNGRFTLSRDNAKNTVYLQMNSLKPEDTAVYYCAAEGGVQEFDYWGQGTQVTVSS | low polyreactivity
QVQLVESGGGLVQAGGSHRLSCAASGRIFSTYAMGWYRQAPGKERELVAAINKIGGSTYYADSVKGRFTISRDNAKNNVYLQMNSLKPEDTAVDYCAADAPHYPVRRYYYWGQGTQVTVSS | low polyreactivity
QVQLVESGGGLVQAGGSHRLSCAASGRIFVGYTMGWYRQAPGKERELVAAITSGGSTYYADSVKGRFTISRDNAKNTVYLQMNSLNPEDTAVYYCNAAYQFDSYHLGGYGYEYWGQGTQVTVSS | low polyreactivity
QVQLVESGGGLVQAGGSHRLSCAASGRIFVKYAMGWYRQAPGKERELVAAITKSGSSTYYADSVKGRFTISRDNAKITVYLQMNSLKPEDTAVYYCAALTISRSRTGYYWGQGTQVTVSS | low polyreactivity
QVQLVESGGGLVQAGGSHRLSCAASGRINYNYAMGWYRQAPGKERELVAAISGSGGSTYYADSVKARFTISRDNAKNTVYLQMNSLKPEDTAVYYCSTSGPQYDSRNFDYWGQGTQVNVSS | low polyreactivity
QVQLVESGGGLVQAGGSHRLSCAASGRTFKGNAMGWYRQAPGQERELVAAISSRGGRTFYADSVKGRYTISRDNAKNTVYLQMNSLKPDDTAVYDCAAYSPLTKTPDSPVRYDYWGQGTQVTVSS | high polyreactivity
QVQLVESGGGLVQAGGSHRLSCAASGRTFPFYAMGWYRQAPGTERELVADITSSGGSTYYADSVKGRFTISRDNAKNTVYLQMNSLKPEDSAVYYCAADPIDISYWEFDYWGQGTQVTVSS | low polyreactivity
QVQLVESGGGLVQAGGSHRLSCAASGRTFRYNAMGWYRQATGKERELVAAISTRGGSTYYADSVKGRFTISRDNAKNTVYLQMNSLKPEDTAVYYCATKVYSSRYRGYGYWGQGTQVTVSS | high polyreactivity
QVQLVESGGGLVQAGGSHRLSCAASGRTFSGYAMGWYRQAPGKERELVAAISFSGGSTYYADSVKGRFTISRDNAKNTVYLQMNSLKPEDTAVYYCAAEFVRQNYEMDYWGQGTQVTVSS | low polyreactivity
QVQLVESGGGLVQAGGSHRLSCAASGRTFSYNAMGWYRQAPGKERELVASITSSGGGTSYADSVKGRFTISRDNAKNTVYLQMNSLKPEDTAVYYCNRVLPHPDGYGVGARGYWGQGTQVTVSS | high polyreactivity
QVQLVESGGGLVQAGGSHRLSCAASGRTFSYYAMGWYRQAPGKEREMDADISKSGGRTYYADSLKGRFTISRDNAKNTVYLQMNSLKPEDTAVYYCAAGFYWAVYYSVDYWGQGTQVTVSS | high polyreactivity
QVQLVESGGGLVQAGGSHRLSCAASGRTFYRNAMGWYRPAPGKERELVAAITSGGGTTYADSVKGRFTISRDNAKNTVYLQMNSLKPEDTAVYYCAKRYNGRFRLGYEYWGQGTQVTVSS | high polyreactivity
QVQLVESGGGLVQAGGSHRLSCAASGSIFNRYAMGWYRQAPGKERELVAAITAGGSSTYYADSVKGRFTISRDNAKNTVYLQMNSLKPEDTAVYYCNAVWWHPKDYDYWGQGTQVTVSS | low polyreactivity
QVQLVESGGGLVQAGGSHRLSCAASGSIFQSYAMGWYRQAPGKERELVAAIDRSGTSTYYADSVKGRFTISRDNAKNTVYLQMNSLKPEDTAVYYCNTLRRSWQMDYWGQGTQVTVSS | low polyreactivity
QVQLVESGGGLVQAGGSHRLSCAASGSIFRGYAMGWSIQAPGKERELVAAISWRGTSTYYADSVKGRFTISRDNAKNTVYLQMNSLKPEDTAVYYCAADLDGDYYYYGQGNDYWGQGTQVTVSS | low polyreactivity
QVQLVESGGGLVQAGGSHRLSCAASGSIFSTYAMGWYRQAPGKERELVAAITSDGTYADSVKGRFTISRDNARNTVYLQMNSLKPEDTAVYYCAAYYPYTRHGDYWGQGTQVTVSS | low polyreactivity
QVQLVESGGGLVQAGGSHRLSCAASGSIFYKNAMGWYRQAPGKERELVAAITKRGGTTYYADSVKGRFTISRDNAKNTVYLQMNSLKPEDTAVYYCAKYLGPASIVRYEYWGQGTQVTVSS | high polyreactivity
QVQLVESGGGLVQAGGSHRLSCAASGSTYTYNAMGWYRQAPGKERELVAAISSSGGTTYYADSVKGRFTISRDNAKNTVYLQMTSLKPEDTAVYYCAKRWLYTSAFRIMDYWGQGTQVTVSS | high polyreactivity
QVQLVESGGGLVQAGGSHRLSFAASGSLFYWYAMGWYRQAPGKERELVAAITTSGGRTYYADSVKGRFTISRDNAKNTVYLQMNSLIPEDSAVYYCNSAALFRYYDRWKTAYDYWGQGTQVTGSS | high polyreactivity
QVQLVESGGGLVQAGGSHRLSGAASGFIFFYYDMGWYRQAPGKERELVAAISWSGSSTYYADSVNGRFTISRDNAKNTVYLQMNSLNTEDTAVYYCAARYAPSQDWDEYYYWGQGTQVTLSS | low polyreactivity
QVQLVESGGGLVQAGGSHRLSSAASVRIFRGYAMGWYRPAPGKERELVAVISYSGTRTYYADSVKGRFTISRDNAKNTVYLQMNSLKPEDTAVYYCNASANGFKEGYWGQGTQVTVSS | high polyreactivity

Reference: the nanobody polyreactivity screen of Harvey et al. (2022)
